This passage reports protein production results from a protein production outcome set (Wang et al. 2014).

The nature of the series: label from the status in PepcDB records.

Take “MAKAISAPITFAIILVIGILLLIPFLTYVTYLSQSNQISQAQFNNYIYLKNLEQQRAVSGRPGVYYNGSSLFILYSNGTFVPNASIVVVGILYLNNLGVWQNITSLKYPIILNRTGSVNLPSNVAGKPIILVTSLGNIFFLQPGSSIGPYSNSIGKGGVTIISQIYTSSQIYSTSINITTNINGKFSNYTTPITFPNQTGTFQVKAREYIYYINSKTGKVITGVFSNWQILGSATVNSTTTQGITVTLQGKPVILIANYSQLVQSVNLSIKTNANFSIVVNINGVNYTVNNHALSATVPAGYVNFTVYTLQGNDTSSMSSGIIKHYKFNTINYTGNTYVTNSQLLFLPPNSLPYVQINYVNDYNYYKVFLYDYYDSPPPPGGGLVVILNGTEYNYNNTYGYWIIGGNYSFVPTGIFNGSMSYEAKEVTIAGNNGILNYYFPDIPSYIIINQPMTITVYYDYVIKWVPI”: the protein production result was “failed”.
For “MAKASSPTDTGKQKVRSAEVGTDILKALAELSPSTSLSRLAEHVQMPASKVHRYLQALIASGFAEQDAATNHYGLGREALRVGLAALGSIDVLKVAAMPLSQLRDELNESCFIAVWGNQGATVVSIEPAVRAVTVVTQIGSVLPLLSSSTGLVFAAYLPERETQELRDRELAALQQTASDYHTLLAGIREKGLHHVHGLLMPGVDALSAPVFNAMGQIAAVMTVVGPTSIFHADEHGPAAQSLLTAARTVSWRMGYAGNPHCASTSSVSSSTSQSSS”, the protein production result is “failed”.
The result for “MAKAVRIGAEGYKLKLDGAVQEIDGRSVVLVDVDSITPLMFGGSMKEKAKLLDAKFLRKYYEENKDFFFLSTREEKKMFVTLQLAREYAELVDDQFLRGFFEKALESAQKAF” reads “not failed”; that for “MAKHAILVIDMLNDFVGEKAPLRCPGGETIIPDLQKIFEWVRGREGDDIHLVHIQEAHRKNDADFRVRPLHAVKGTWGSDFIPELYPQEDEYIVQKRRHSGFAHTDLDLYLKEEGIDTVVLTGVWTNVCVRSTATDALANAYKVITLSDGTASKTEEMHEYGLNDLSIFTKVMTVDQYIQAWENDEDPWVGGGDAQNKVK”, “not failed”.
Consider “MAKHVIIGAGSIGTNVARLLAEGGESVRIVTRSGSGPEHPLVDRVAADASDPSRLTELSRGAGVIYHCANPPSYTVWERLLPPLQTAAITAAKANDAVLALTGSLYAYGPQPGGRMNEHTPMAATGHKGRLRRRMWEQALAGGIRTVEVRGSDYIGKDANGIYSLLIKSALQKGKAAWITGHLDMPHTFTFNGDMAQALITLASEERAWGRPWHVPSAPAVTIRELARRYAVAAGRPPIKLIQIPRSVTRTAGLIVPIAREMAEMDYQWYAPFHMDATETTETFGLTATDLDTAVRNEVG”, for which the protein production entry is “failed”.
The result for “MAKILEGPAMKLFNKWGIPVPNYVVIMDPKRLAQLGEANKWLRESKLVVKAHEAIGGRFKLGLVKIGLNLDEAIQASREMLGAKVGTAEVRQVIVAEMLDHDAEFYVSIIGNRDGAELLISKYGGVDIEDNWDSVRRIQIPLDEHPTIEQLTALAKEAGFEGEIAERVGKICSRLVLCFDNEDAQSIEINPLVIRKSDMRFAALDAVMNVDWDARFRHADWDFKPVSEIGRPFTEAEQQIMDIDSRIKGSVKFVEVPGGEIALLTAGGGASVFYADAVVARGGTIANYAEYSGDPPDWAVEALTETICRLPNIKHIIVGGAIANFTDVKATFSGIINGLRESKSKGYLEGVKIWVRRGGPNEAQGLAAIRKLQEEGFDIHVYDRSMPMTDIVDLALKS” reads “not failed”.
The same measure for “MAKKRGKPEIDWTDDDKEIIWVSKSEIKRDSEHLKKLGAELIELTPQNLEKIPLDEDLKYAIRQAQSFKLEARRRQIQFIGKLLRNRDSAPIQDALDKVKNRHNQQQALLHKLELIRDQLINMGDASLNQLLSEYPQLDRQHLRNLIRMAQKEKQINKPAKNYHEILQYLKSELIV”: “not failed”; for “MAKKRITLPQNFDELITAGDVEALKAVYDKCELTAHNGRYSLNTALHYGGVPDELVIWLVEQGLDVNTLDYYGRTPLYKHATLGRDTVKLLYELGGDIQKPDTYGSTPLHTAAGFFRPKIVSFLIEKDADVNAKNDMGRTPLAEALATCRNSNVVQAAEIAEMLIKAGAEVVPEMAERVEIIGKDFEFHRENFNKDSLAETEAGLEKLYALFDVKPAPKRKIHDGVSPIIVKTGSWKEQYDELWEMLIPSSGAAKTVQGEVIRITGRVQDELYRNGGVNWDKDYRNMLNSLPNHFASGTPLSEEELKETKELISNIRANGEDEEVITERLRELSVLWVLLNPTPILLGKTNYNR”: “failed”; for “MAKLRHSRFQARKWSTLMLVLFMLFMLTIVLLMLLAFGVFSLPINNDESSPIDLSYFRRAATERSEGLGKRGDQWTEVLSWEPRAFVYHNFLSKEECEYLISLAKPHMVKSTVVDSETGKSKDSRVRTSSGTFLRRGRDKIIKTIEKRIADYTFIPADHGEGLQVLHYEAGQKYEPHYDYFVDEFNTKNGGQRMATMLMYLSDVEEGGETVFPAANMNFSSVPWYNELSECGKKGLSVKPRMGDALLFWSMRPDATLDPTSLHGGCPVIRGNKWSSTKWMHVGEYKI”: “failed”.
The result for “MAKLSRKERHRLLLQKIKENPFITDEELAEEFGCSVQTIRLDRAILDIKEVRERIKEMAKESLGKLKTISPRDVVGEIIDIELGSYAIATFEPELWMTFSNSQMVKGQHIYAFAESIAMSVIDAKAALIGIANIKYKTPVFANDRLVARAELKKKRNNKYIVWVFIKRNNEEVFRGKFILVAIDDENKETGQTGV” reads “failed”.
Take “MAKNKLLRMDNVSIVVESLDNAISFFEEIGLNLEGRANVEGEWAGRVTGLGSQCVEIAMMVTPDGHSRIELSRFLTPPTIADHRTAPVNALGYLRVMFTVEDIDEMVSRLTKHGAELVGEVVQYENSYRLCYIRGVEGILIGLAEELGNK”: the protein production result was “not failed”.
The same measure for “MAKNQSGSIFNTKVTIKYDKEKIIKLSSEMFSEDLCIQCGRCCMIHVYTTDEKIDPEIVYCNHLDVETKRCKIYKNRFNKEKECLSMLEAILTSALPKDCPYVKNYPSYEEPWFYGLLRGKNLK”: “failed”; for “MAKPVYHAITKYSPKKPVIVFVPSRKQTRLTAIDILTTCAADIQRQRFLHCTEKDLIPYLEKLSDSTLKETLLNGVGYLHEGLSPMERRLVEQLFSSGAIQVVVASRSLCWGMNVAAHLVIIMDTQYYNGKIHAYVDYPIYDVLQMVGHANRPLQDDEGRCVIMCQGSKKDFFKKFLYEPLPVESHLDHCMHDHFNAEIVTKTIENKQDAVDYLTWTFLYRRMTQNPNYYNLQGISHRHLSDHLSELVEQTLSDLEQSKCISIEDEMDVAPLNLGMIAAYYYINYTTIELFSMSLNAKTKVRGLIEIISNAAEYENIPIRHHEDNLLRQLAQKVPHKLNNPKFNDPHVKTNLLLQAHLSRMQLSAELQSDTEEILSKAIRLIQACVDVLSSNGWLSPALAAMELAQMVTQAMWSKDSYLKQLPHFTSEHIKRCTDKGVESVFDIMEMEDEERNALLQLTDSQIADVARFCNRYPNIELSYEVVDKDSIRSGGPVVVLVQLEREEEVTGPVIAPLFPQKREEGWWVVIGDAKSNSLISIKRLTLQQKAKVKLDFVAPATGAHNYTLYFMSDAYMGCDQEYKFSVDVKEAETDSDSD”: “failed”.
Regarding “MAKSLTFSTFSPNNTLKKNVIPIVLLHGWGLNSGVWQPLLELFHRNDESIYQLITIDLPGFGINSAVDIKPYSLANICHHIEQVIDQPAIYLGWSLGGLIATEMSLKYPEKVLASITVASSPYFVEQPTDNWPGIKENVLESFHKQLAQDTAKTISGFLKIQAMGSPHIRQDLKLITQLVMAHTLPSQQTLADSLALLSNSDLRLHLSKIKQPLLRLYGHNDSLVPKEVMEKISYLAPNSDQHLFADASHAPFISHLDDFYQVLVVWLDSHFNLEHHHHHH”, the protein production entry was “failed”.
With “MAKSRLLLSELLDQLSFALCIVRNDYVIVKVNEYFESRVIFDGETMQGKNILELFPESADYLKRKIDTALVIESSSFSSWEQKPHLLPFKSSRPVSGEEEQMYQNLEVIPIHSED”, the protein production entry is listed as “failed”.
The result for “MAKTLFWLCLLLPFYAWVGYPLLLALLSLFVRPRPVQEGAPLSVSVIIAAHNEGPHIEHKLRTLLQQDYPATDLQIILASDGSSDDTVATALGVRDSRIVVLDLPRVGKAGALNAAVELARNDILVFTDADNQWSHDTLGKLLAPLSDPQVGACGGHMIIPDPGHNLSLGDSLYRHYEAWLRQAENRTGCMVSADGALLALRRELFQRIPAEVNDDFFISTCAPVAGKRIVYVEEAQVLDQGVDEAGKQYRRRLRVTVGGLQSLAQRRELMNPLRHGAYAIALISHKLIRRLAPVLLLPLLVSSLLLWNAGAFYSLALLAQVLGYGAGIMGLLDRRGRLPKVFRLAGFVLVTMAGMSMGLWQFLRGQRYALWNPQQNR” reads “failed”; that for “MAKTSRPSKAKQQALVHQLIGKIDAQPEDYHAYYELVVLLTAGQDFEQAEALAMKALGKFDHQQPAADYLRYALGNVYYQAQTYDKALPYYQQITDDQLKQDAYLMSAQALMAQHDYQHALVWAITAQEARPQQLDANLLVADILLALGNNQQASDYYQRAYKIDSQSGRAAFNLGLTAMVLGKPYATWFERAQKLDSQYFKSHQQQLTDIEKMLAAQADNQNH”, “failed”; that for “MAKVTISSVIDAPVEKVWARIRDFNGLPCWHPRMVESHIEDGKNASTIGCVRNFELITGARLREKLLDFSDENFLVSYSILETPQPLTNHKATLQLRRVTDGDRTYAEWTASFDAAPEEADKIAAGMGANVFQGGFNALKSHFSGQD”, “failed”.
Consider “MAKWRLATATLRRQLQSSSPTISTFKNPTKALSAAAHQSTRSYSTTQTDDSRGKWLTLPPFSPTIDGTAVGKDLLSDGDSVKSSTDNSKTTALRWILRCRPDLPRTLVQKLFRLRQVRREMSMSVDGDELQRSQLKRVAAKESLNVGDRIYLPLSVDNDTPQTPPAKKESFQCSDEERKFVCSLVLYKDPAIIVLNKPHGLAVQGGSGIKTSIDELAASCLKFDKSESPRLVHRLDRDCSGLLVLARTQTAATVLHSIFREKTTGASAYGVKKNVKSLKRKYMALVIGCPPRQRGQISAPLRKVVVDDGKSERITVNDNGELVSTQHAITEYRVIESSPHGYTWLELRPLTGRKHQLRVHCAEVLGTPIVGDYKYGWQAHKAREPFVSSENNPTKQSSSPFGLDLDGGDVSSKQPHLHLHSKQIDLPNISQLLEKMQVSSDSDISDLDSLKFDAPLPSHMQLSFNLLKSRVETCDKN”, for which the protein production result is on record as “failed”.
The same measure for “MAKYDVLTIGNAIVDIIARCDDSFLEENGIIKGAMNLINADRAELLYSRMGPAVEASGGSAGNTAAGVASLGGRAAYFGKVADDQLGEIFTHDIRAQGVHFQTKPLDGHPPTARSMIFVTEDGERSMNTYLGACVELGPEDVEDDVVAQSKVTYFEGYLWDPPRAKDAIREAARIAHAHGRETAMTLSDSFCVHRYRSEFLELMRSGTVDIVFANRQEALALYETEDFDRALELLARDCKLAAVTLSEEGSVVVRGAERVRVGASVLEQVVDTTGAGDLYAAGFLFGYTSGRSLEECSKLGNLAAGIVIGQIGPRPLVSLATAARQAALV”: “not failed”.
The result for “MAKYETPPPVRPLEKLITDFSYTNGLDPVNVFNDFLTYIIHGFSPGAPPLQNWKYKRLQNMKFMEMLTGWVQLMASRIKDDTSWYDPFGDLYMALVSKSAQQSQGQFFTPVHICDLMVLCTQTEEKMTGQRMGDPTCGSGRLLLAYHARNPENYLIGEDINRTCCLMTVCNMLIHGCVGEVICHDSLNPGNFVDGWKVNPMLTWTGIPTIKRMNMKEYRAGRNLPASPYIIRKTMLAGSRKHKTDSLLPLQAVFKMLEHHHHHH” reads “not failed”.
